The record followed here is paper PMC11641334, “The Effect of CBM1 and Linker on the Oxidase, Peroxidase and Monooxygenase Activities of AA9 LPMOs: Insight into Their Correlation with the Nature of Reductants and Crystallinity of Celluloses” (International Journal of Molecular Sciences, 2024).

The target of data set [1] is T1, NcLPMO9C∆CBM (Neurospora crassa, UniProt Q7SHI8).
T1 construct: gene gh61-3; Pichia pastoris X33, copper-saturated
The data set can be described thus: peroxidase assay, absorbance at […] nm (coerulignone), Michaelis-Menten fit. Format: biochemical. Conditions: 5 mM H2O2 co-substrate; copper-saturated enzyme 1 µM; 100 mM sodium phosphate pH 6.0; 37 °C; read-out: 2,6-DMP / Km.

Substrate in data set [2]: COc1cccc(OC)c1O
Put plainly: purified protein. Format: biochemical, Aspergillus oryzae. Conditions: 5 mM H2O2 co-substrate, copper-saturated enzyme 1 µM, 100 mM sodium phosphate pH 6.0, 37 °C.

Substrate in data set [3]: COc1cccc(OC)c1O
The data set can be described thus: purified protein. Format: biochemical, Neurospora crassa. Conditions: 5 mM H2O2 co-substrate, copper-saturated enzyme 1 µM, 100 mM sodium phosphate pH 6.0, 37 °C.

For `COc1cccc(OC)c1O` [2,6-DMP], in data set [1], the Km was 1280 ± 120 µM.

B1: AoLPMO9A (Aspergillus oryzae RIB40) (protein)
chain: HGYVSGVVIDGQYYGGYLVDKYAYSDNAPDTIGWTTSATDLGFVDGTGYQSPDIICHKDGAPGALTAEVAAGGKIELQWTEWPESHHGPVLNYLAPCGGECSAVDKTTLEFFKIEAKGLIDGTTPPGQWATDDLISNNNSYTVTIPTSIQEGNYVLRHEIIGLHSAGQKDGAQNYPQCINIKVTGGGDATPAGTAGEALYKDTDAGILFDIYSDLSGGYPIPGPEVFSA
notes: wild type, C1/C4-oxidizing, no CBM1; Pichia pastoris X33, N-glycosylated, Ni-NTA, copper-saturated
Take B1: in data set [2], the Km came out at 1760 ± 310 µM; the kcat (in general, the number of substrate molecules converted per active site and unit of time at saturation) is 1.48 ± 0.09 s⁻¹.

B2: NcLPMO9C (Neurospora crassa OR74A) (protein)
chain: HTIFQKVSVNGADQGQLKGIRAPANNNPVTDVMSSDIICNAVTMKDSNVLTVPAGAKVGHFWGHEIGGAAGPNDADNPIAASHKGPIMVYLAKVDNAATTGTSGLKWFKVAEAGLSNGKWAVDDLIANNGWSYFDMPTCIAPGQYLMRAELIALHNAGSQAGAQFYIGCAQINVTGGGSASPSNTVSFPGAYSASDPGILINIYGGSGKTDNGGKPYQIPGPALFTCPAGGSGGSSPAPATTASTPKPTSASAPKPVSTTASTPKPTNGSGSGTGAAHSTKCGGSKPAATTKASNPQPTNGGNSAVRAAALYGQCGGKGWTGPTSCASGTCKFSNDWYSQCLP
notes: wild type with 79-residue linker and CBM1, C4-oxidizing; Pichia pastoris X33, N-glycosylated, Ni-NTA, copper-saturated
Regarding B2, in data set [3], the Km amounted to 940 ± 90 µM and the kcat turned out to be 0.58 ± 0.02 s⁻¹.

B3: AoLPMO9B (Aspergillus oryzae RIB40) (protein)
chain: HGHVSNIVINGVYYEGFDINSFPYMGESAPTVAAWTTPNTGNGPLAPDDYSSPDIICHQNATAGKGYVEVNAGDRISLQWTPWPESHHGPVVDYLARCEPNCASVDKTSLEFFKIDGVGIVDGSSVPGVWGDDQLIQNNNTWLVEIPKSIAPGYYVLRHELIALHSAGTEGGAQNYPSCFNLKVNGEGTDKPAGVVGTELYTPTGDGIIFNIYQTVSEYPVPGPTLYSGAATGVTQAASTVTSTGTALTVGAAATTPASGSGASSSAAPSSSAAATPSSSAAPSSSAAARR
notes: as for B1
With B3, in data set [2], the Km stood at 1550 ± 140 µM and the kcat was determined as 1.33 ± 0.04 s⁻¹.
